The values that follow come from the supplement of paper PMC9170038.

For the data set, the system named is MS2 coat protein. Nature of the data set: apparent KD of MS2 coat protein; designed switch direction (-1 OFF switch, 1 ON switch): -1; higher = weaker reporter binding. Put shortly: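 An oligonucleotide input, 200 uM small-molecule ligand, or no input was present during titration of SNAP-549-labelled MS2 coat protein, which was doubled from 0.7 or 1.5 nM to 3 µM. Designed RNA switches had been transcribed on Illumina chips by stalled E. coli RNA polymerase. Apparent KD per design is the median over clusters of curves fitted to normalised cluster fluorescence.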

Where [1] appears, read: input ligand: microRNA oligo, concentration not stated.
[2] abbreviates: Eterna round: R95, input ligand: microRNA oligo, concentration not stated.
The mark [3] stands for this setting: Eterna round: R95, input ligand: FMN 200 uM.
Where [4] appears, read: Eterna round: R95, input ligand: none.

For the sequence “UGAGUGCUGCGAGGAUAUACAUGAGGAUCACCCAUGUAAAAGUGUGAGGCUUUGCCUCACACUAUGUAGAAGGCGCAGUACUCU [JL ENG2 1.04] (Eterna round: R96, puzzle: Exclusion NG 2)”, the “apparent KD of MS2 coat protein” value worked out at 17.6 nM (input ligand: FMN 200 uM), 10.6 nM under setting [1] and 13.6 nM (input ligand: none).

Take “UGAGUGCUGCGAGGAUAUACAUGAGGAUCACCCAUGUAAACGUGUGAGGCUUUGCCUCACACGAUGUAGAAGGCGCAGUACUCU [JL ENG2 1.05] (Eterna round: R96, puzzle: Exclusion NG 2)”: the “apparent KD of MS2 coat protein” value is 18.4 nM (input ligand: FMN 200 uM), 9.25 nM under setting [1] and 14 nM (input ligand: none).

As for “UGAUCAAAUGUCAGGAUAUGCUGUUGUAAUCAACAGCAGAAGGGACAUGAGGAUCACCCAUGUCUUGUCGAUUU [Magic-03] (puzzle: Brourd's mod of Exclusion 4)”, the “apparent KD of MS2 coat protein” value under setting [2] stood at 13.8 nM.

Take “UGAUCAGACCGAGGAUAUACAGGGAGCACGCACGUGAGUGCGUGCACUACAUGAGGAUCACCCAUGUAGAAGGCGGUCUGAUCU [JL ENG2 1.00] (Eterna round: R96, puzzle: Exclusion NG 2)”: the “apparent KD of MS2 coat protein” value (input ligand: FMN 200 uM) came to 268 nM, the “apparent KD of MS2 coat protein” value under setting [1] came out at 16.1 nM and the “apparent KD of MS2 coat protein” value (input ligand: none) was found to be 19.3 nM.

Take “UGAUCAGACCGAGGAUAUACAUGUAGGACCCACGUGAGUGGGUCCAUUACAUGAGGAUCACCCAUGUAGAAGGCGGUCUGAUCU [JL ENG2 1.90] (Eterna round: R96, puzzle: Exclusion NG 2)”: the “apparent KD of MS2 coat protein” value by setting is: (input ligand: FMN 200 uM) 313 nM; under setting [1], 97.7 nM; (input ligand: none) 139 nM.

As to “UGAUCAGACCGAGGAUAUAUAUGGAGGACCCACGUGAGUGGGUCCACUACAUGAGGAUCACCCAUGUAGAAGGCGGUCUGAUCU [JL ENG2 1.86] (Eterna round: R96, puzzle: Exclusion NG 2)”, the “apparent KD of MS2 coat protein” value (input ligand: FMN 200 uM) came to 29.5 nM, the “apparent KD of MS2 coat protein” value under setting [1] amounted to 9.64 nM and the “apparent KD of MS2 coat protein” value (input ligand: none) stood at 13.3 nM.

Regarding “UGAUCUAGCGGAGGAUAUACAUGAGGAUCACCCAUGUAGAUAACAUGACCGUAGUCGUGUAUCGUGUAGAAGGCCGCUAGAUCU [JL ENG2 3.67] (Eterna round: R96, puzzle: Exclusion NG 2)”, the “apparent KD of MS2 coat protein” value is 35 nM (input ligand: FMN 200 uM), 9.25 nM under setting [1] and 12.6 nM (input ligand: none).

For the sequence “UGAUCUAGCGGAGGAUAUACAUGAGGAUCACCCAUGUAGAUGAGUGUACCGUAGUGCACUCUUGUGUAGAAGGCCGCUAGAUCU [JL ENG2 3.56] (Eterna round: R96, puzzle: Exclusion NG 2)”, the “apparent KD of MS2 coat protein” value reads like this: (input ligand: FMN 200 uM) 24.8 nM; under setting [1], 12.6 nM; (input ligand: none) 16.7 nM.

With “UGAUCUAGCGGAGGAUAUACAUGAGGAUCACCCAUGUAGUGGUGACGUGCGUACAUGUCACCUGUGUAGAAGGCCGCUAGAUCU [JL ENG2 3.58] (Eterna round: R96, puzzle: Exclusion NG 2)”, the “apparent KD of MS2 coat protein” value (input ligand: FMN 200 uM) was 20.1 nM, the “apparent KD of MS2 coat protein” value under setting [1] is 9.65 nM and the “apparent KD of MS2 coat protein” value (input ligand: none) was 14.8 nM.

Consider “UGAUGACAUGAGGAUCACCCAUGUCAGGAUAUUGAGCUUGAGCUGAAAAGUUCGAGUUCGAGAAGGGACUGUCG [-29.6, -26.6 kcal, A 28%, 1] (Eterna round: R97, puzzle: Exclusion 1)”, for which the “apparent KD of MS2 coat protein” value runs as follows: (input ligand: FMN 200 uM) 28.2 nM; (input ligand: none) 29 nM.

Regarding “UGAUUGUGAGGAUAUUCUGAAUAAGGCACGGGCGUCUUAUUGAAGAAGGCACAUGAGGAUCACCCAUGUGGGUU [Eternabot (L2) Solution 90] (Eterna round: R97, puzzle: Exclusion 4)”, the “apparent KD of MS2 coat protein” value came to 248 nM (input ligand: FMN 200 uM) and 188 nM (input ligand: none).

Consider “UGAUUGUUUACCAGAUUAUACAUGAGGAUCACCCAUGUAGAUCCUACGUGCACGUUAUACCGCUCGUCUUAUUCCCA [Sensor-V1 #75] (Eterna round: R97, puzzle: Sensor, turn-off variant 1)”, for which the “apparent KD of MS2 coat protein” value (input ligand: FMN 200 uM) was found to be 44.6 nM and the “apparent KD of MS2 coat protein” value (input ligand: none) was 41.2 nM.

For “UGAUUGUUUACCAGGUUAUACAUGAGGAUCACCCAUGUAGAUCCUACGUGCGCGUUGUACCGCUCGUCUUAUUGCCA [Sensor-V1 #79] (Eterna round: R97, puzzle: Sensor, turn-off variant 1)”, the “apparent KD of MS2 coat protein” value came to 19.5 nM (input ligand: FMN 200 uM) and 21.3 nM (input ligand: none).

As for “UGCACCUCAGGAUAUACUAGGUCCAGUAUGGCGAAAGCCGCACAUGAGGAUCACCCAUGUAGAAGGGAGGUGCA [Eternabot (L1) Solution 61] (Eterna round: R97, puzzle: Exclusion 2)”, the “apparent KD of MS2 coat protein” value runs as follows: (input ligand: FMN 200 uM) 34.1 nM; (input ligand: none) 257 nM.

For the sequence “UGCAGACGAGGAUAUAAACGAUAUAACAUGAGGAUCACCCAUGUACGAUCGAAUGAUCGUUUAGAAGGCGUCUGCU [E5/10-A3] (Eterna round: R97, puzzle: Exclusion 5)”, the “apparent KD of MS2 coat protein” value (input ligand: FMN 200 uM) came out at 16.1 nM and the “apparent KD of MS2 coat protein” value (input ligand: none) was found to be 16.2 nM.

In the case of “UGCAGACGAGGAUAUGAUAAAGAUCACAUGAGGAUCACCCAUGUACGCAGGAUACUGCGAUCAGAAGGCGUCUGCA [E5/1-A3] (Eterna round: R97, puzzle: Exclusion 5)”, the “apparent KD of MS2 coat protein” value worked out at 16.3 nM (input ligand: FMN 200 uM) and 13 nM (input ligand: none).

For “UGCGGAAGAGGAUAUACAUUGAAUUUGAUUCAUGUAAAACUACAUGAGGAUCACCCAUGUAGAAGGCUUUCGCU [Mat - Exclusion 2 - JL Mod - D66] (Eterna round: R97, puzzle: Exclusion 2)”, the “apparent KD of MS2 coat protein” value is, setting by setting: (input ligand: FMN 200 uM) 33.7 nM; (input ligand: none) 17.7 nM.

With “UGCGGUUGAGGAUAUACGUAGAAGUAGAUUCAUGUAAAACUACAUGAGGAUCACCCAUGUAGAAGGCAAUCGCU [Mat - Exclusion 2 - JL Mod - D40] (Eterna round: R97, puzzle: Exclusion 2)”, the “apparent KD of MS2 coat protein” value by setting is: (input ligand: FMN 200 uM) 193 nM; (input ligand: none) 21.5 nM.

With “UGCUACGGAGGAUAUACAUGAGGAUCACCCAUGUGAUAGAUUAUGCCGAGAGGCUAGUGUAGAAGGCCGUAGCU [jl-ex3-4.14 jl mod] (Eterna round: R97, puzzle: Exclusion 3)”, the “apparent KD of MS2 coat protein” value runs as follows: (input ligand: FMN 200 uM) 683 nM; (input ligand: none) 189 nM.

With “UGGAUAAUUGGAGGAUAUGCGACAUAAACCAUUGUAGAAGGCCAACAUGAGGAUCACCCAUGUGUCCCAGAGACCACAGAUCCA [Eternabot solution 9] (Eterna round: R96, puzzle: Exclusion NG 1)”, the “apparent KD of MS2 coat protein” value (input ligand: FMN 200 uM) worked out at 36.9 nM, the “apparent KD of MS2 coat protein” value under setting [1] was 22.2 nM and the “apparent KD of MS2 coat protein” value (input ligand: none) stood at 28.2 nM.

As to “UGGCUGCUCAGGGAGUGUGACAUGAGGAUCACCCAUGUGGUAGUAAGGAACAAGCUUUUUACACGUACUUAUAAAGC [JR_SV3TOV1_Sub011] (puzzle: Sensor v3, turn-off variant 1)”, the “apparent KD of MS2 coat protein” value is, setting by setting: under setting [3], 157 nM; under setting [2], 135 nM; under setting [4], 296 nM.

With “UGGUAACAUGAGGAUCACCCAUGUCAGGAUAUCAGGAAGAAGAGAGGAGAGGAGAAGAUGAGAAGGGACUAUAU [Excluse me! 11 - Jieux - Exclusion 1] (puzzle: Exclusion 1)”, the “apparent KD of MS2 coat protein” value under setting [3] stood at 21.6 nM, the “apparent KD of MS2 coat protein” value under setting [2] is 19.8 nM and the “apparent KD of MS2 coat protein” value under setting [4] was found to be 26.2 nM.
